Data as given in publication PMC4142212 (Nature, 2014).

How the values were obtained:
[1] = tested on: ZMYND11 PBP; test: Histone peptide pull-down, GST-ZMYND11 PBP; assay type: binding, mouse; conditions: mild buffer: 50 mM Tris-HCl 7.5, 200 mM NaCl, 0.05% NP-40, 1 mM PMSF
[2] = biological target: T1, ZMYND11 PBP (PHD-Bromo-PWWP, aa74-371) (Mus musculus, UniProt Q8R5C8); test: ITC, ZMYND11 PBP domains; assay type: binding; conditions: n value fixed at 1
T1 sequence (Q8R5C8 74-371): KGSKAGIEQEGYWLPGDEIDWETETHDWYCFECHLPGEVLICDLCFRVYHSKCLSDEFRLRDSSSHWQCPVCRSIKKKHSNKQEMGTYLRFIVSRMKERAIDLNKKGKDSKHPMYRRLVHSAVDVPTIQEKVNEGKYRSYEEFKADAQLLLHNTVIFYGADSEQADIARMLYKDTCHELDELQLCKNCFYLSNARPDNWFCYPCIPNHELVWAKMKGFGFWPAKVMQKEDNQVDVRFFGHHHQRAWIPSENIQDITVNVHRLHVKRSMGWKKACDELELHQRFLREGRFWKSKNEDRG

[3] = biological target: T2, ZMYND11 BP (Bromo-PWWP, 154-371) (Mus musculus, UniProt Q8R5C8); test: ITC, ZMYND11 BP domains; assay type: binding; conditions: n value fixed at 1
T2 sequence (Q8R5C8 154-371): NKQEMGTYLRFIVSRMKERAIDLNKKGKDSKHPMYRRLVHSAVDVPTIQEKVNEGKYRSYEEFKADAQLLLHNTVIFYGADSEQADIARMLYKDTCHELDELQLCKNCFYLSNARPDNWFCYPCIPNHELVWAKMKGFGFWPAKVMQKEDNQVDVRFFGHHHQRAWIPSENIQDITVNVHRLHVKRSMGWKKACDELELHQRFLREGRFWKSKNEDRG

With “H3.1K36me3: synthetic histone H3.1_19-42K36me3 peptide” the “peptide pull-down binding, mild buffer” value [1] was “weak binding”, the Titration c-value [2] was 0.16 and the Titration c-value [3] was 0.15.
